According to patent publication US20220119501A1 (INVISISHIELD TECHNOLOGIES, published 2022):

Tests used:
[1] = biological target: T1, S1 subunit polypeptide of SARS-CoV-2 spike protein (isolate 2019-nCoV, WIV4) (SARS-CoV-2 (isolate 2019-nCoV, WIV4), UniProt P0DTC2 16-685); assay: phage ELISA on SARS-CoV-2 spike S1 (FIG. 1)
[2] = biological target: T1, S1 subunit polypeptide of SARS-CoV-2 …

B1: anti-S1 (SARS-CoV-2) scFv clone #09 (scFv)
scFv: NFMLTQPHSVSESPGKTVSISCTGSSGSIASNYVQWYQQRPGSAPTTVIYEDKERPSGVPNRFSGSIDRSSNSASLTISGLKTEDEADYYCQSYDDGNVVFGGGTKLTVLGSRGGGGSGGGGSGGGGSLEMAEVQLVESGAEVKKPGASVKVSCKASGYTFTSYGISWVRQAPGQGLEWMGWISAYNGNTNYAQKFQDRVTLTTDTSTNTAYMLLRSLRSDDTAVYYCARTWYSYHYDIWGQGTLVTVSSTSGQAGQ
notes: also called phage clone #09
B1: binds [1].

B2: anti-S1 (SARS-CoV-2) scFv clone #13 (scFv)
scFv: QSVLTQPPSASGTPGQRVTISCSGSSSNIGSNYVYWYQQLPGTAPKLLIYRNNQRPSGVPDRFSGSKSGTSASLAISGLRSEDEADYYCAAWDDSLSGPNYVFGTGTKVTVLGSRGGGGSGGGGSGGGGSLEMAQVQLVQSGAEVKKPGSSVKVSCKASGGTFSSYAISWVRQAPGQGLEWMGWISGYNGNTNYAQKLQGRVTMTTDTSTSTAYMELRSLRSDDTAVYYCARTGWSKGEKVTTWGEWFYVDYWGQGTLVTVSSTSGQAGQ
notes: also called phage clone #13
B2: binds [1].

B3: anti-S1 (SARS-CoV-2) scFv clone #15 (scFv)
scFv: QSVLTQPPSVSEAPRQRVTISCSGSSSNIGNNAVNWYQQLPGKAPKLLIYFNDVQSSGVSDRFSGSKSGTSASLAISGLQSEDEADYYCAAWDDSLNAVLFGGGTKLTVLGSRGGGGSGGGGSGGGGSLEMAEVQLVQSGAEVKKPGASVKVSCKASGYTFTGYYMHWVRQAPGQGLEWMGRINPNSGGTDYARKFRGRVTMTRDTSISTAYMELSRLTSDDTAMYYCARGYGDDWGQGTLVTVSSTSGQAGQ
notes: also called phage clone #15
B3: binds [1].

B4: anti-S1 (SARS-CoV-2) scFv clone #26 (scFv)
scFv: QAVLTQAPSASGTLGQQVTISCSGTTSNIGRNTVNWYQHLPGTAPKLLIFVSNQRPSGVPDRFSGSKSGTSASLVISGLQSEDEADYYCGAWDDSLDGMLFGGGTKLTVLGSRGGGGSGGGGSGGGGSLEMAQVQLVQSGAEVKKPGASVKVSCKASGYTFTSYGISWVRQAPGQGLEWMGWISAYNGNTNYAQKLQGRVTMTTDTSTSTAYMELRSLRSDDTAVYYCARGYYGDLDPWGQGTLVTVSSTSGQAGQ
In the case of B4, the IC50 [2] is reported as 1.33 nM.

B5: anti-S1 (SARS-CoV-2) scFv clone #19 (scFv)
scFv: QSALTQPASVSGSPGQSITISCTGTSSDVGGYNYVSWYQQHPGKVPKLMIYEVSNRPSGVSNRFSGSKSGNTASLTISGLQAEDEADYYCSSYTSGDTLVFGGGTKVTVLGSRGGGGSGGGGSGGGGSLEMAELQLVESGGGVVQPGRSPRLSCAASGFTFSNYPMHWVRQAPGKGLEWVAVISYDGNHKYYADSLEGRFSISRDNSKNTLYLQMNSLTAADTAVYYCARGGGMGGLDSWGQGTLVTVSSTSGQAGQ
notes: also called phage clone #19
B5: binds [1].

B6: anti-S1 (SARS-CoV-2) scFv clone #20 (scFv)
scFv: SYVLTQPPSASGTPGQRVTISCSGSSSNIGSNTVNWYQQLPGTAPKLLIYSNNQRPSGVPDRFSASKSGTSASLAISGFQSEDEADYYCAAWDDSLDGYVFGTGTKVTVLGSRGGGGSGGGGSGGGGSLEMAEVQLVQSGAEVKKPGESLKISCKGSGYSFPSYWIGWVRQMPGKGLEWMGIIYPGDSDTRYSPSFQGQVTISADKSISTAYLQWSSLKASDTAMYYCARGSYTYMGGSYDYWGQGTLVTVSSTSGQAGQ
notes: also called phage clone #20
B6: binds [1].

B7: anti-S1 (SARS-CoV-2) scFv clone #30 (scFv)
scFv: QSALTQPPSASGSPGQSVTISCTGTSSDVGGYDYVSWYQQHPGKAPKLMIYEVSKRPSGVSNRFSGSKSGNTASLTISGLQAEDEADYYCSSYTSSSTFPYVFGTGTKVTVLGSRGGGGSGGGGSGGGGSLEMAEVQLVESGGGLEQPGGSLRLSCAASGFTFSSYAMSWVRQAPGKGLEWVSAISASGNSTFYADSVKGRFTISRDNSKHTLDLQMNSLRADDTAVYYCARNSDVWGQGTLVTVSSTSGQAGQ
notes: also called phage clone #30
B7: binds [1].
